Measurements taken from article PMC7080818.

Key:
[1] = target: 3xFLAG-BPLF1 (amino acid residues 1-235), N-terminal catalytic domain of the EBV large tegument protein (Epstein-Barr virus (EBV)) (UniProt P03186)
[2] = target: 3xFLAG-KSHV-ORF64, N-terminal catalytic domain of the KSHV large tegument protein (Kaposi Sarcoma herpesvirus (KSHV)) (UniProt Q2HR64)
[3] = target: 3xFLAG-HCMV-UL48, N-terminal catalytic domain of the HCMV large tegument protein (human cytomegalovirus (HCMV)) (UniProt P16785)
UniProt P16785, sequence (P16785 1-300): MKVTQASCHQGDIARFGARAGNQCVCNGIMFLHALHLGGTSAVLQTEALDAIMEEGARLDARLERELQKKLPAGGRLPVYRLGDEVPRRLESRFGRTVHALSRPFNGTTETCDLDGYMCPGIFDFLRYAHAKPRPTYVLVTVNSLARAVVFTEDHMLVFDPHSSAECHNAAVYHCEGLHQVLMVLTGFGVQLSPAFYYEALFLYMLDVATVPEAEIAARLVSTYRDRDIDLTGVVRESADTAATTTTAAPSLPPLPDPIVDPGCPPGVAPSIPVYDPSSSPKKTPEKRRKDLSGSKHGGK

UniProt P03186, sequence (P03186 1-235): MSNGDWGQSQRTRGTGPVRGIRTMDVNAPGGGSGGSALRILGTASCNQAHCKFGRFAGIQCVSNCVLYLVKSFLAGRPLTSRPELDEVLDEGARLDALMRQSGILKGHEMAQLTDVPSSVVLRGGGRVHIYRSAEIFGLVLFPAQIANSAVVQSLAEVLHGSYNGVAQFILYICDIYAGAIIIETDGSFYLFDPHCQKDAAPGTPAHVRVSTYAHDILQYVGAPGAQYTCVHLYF
UniProt Q2HR64, sequence (Q2HR64 1-300): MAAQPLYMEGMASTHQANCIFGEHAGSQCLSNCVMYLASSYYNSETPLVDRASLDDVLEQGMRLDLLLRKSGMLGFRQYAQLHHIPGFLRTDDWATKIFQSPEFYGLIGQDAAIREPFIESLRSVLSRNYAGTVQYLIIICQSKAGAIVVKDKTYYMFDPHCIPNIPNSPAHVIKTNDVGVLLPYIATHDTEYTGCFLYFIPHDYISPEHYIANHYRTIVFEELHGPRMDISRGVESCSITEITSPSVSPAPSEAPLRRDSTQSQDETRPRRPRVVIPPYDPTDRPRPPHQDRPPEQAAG

With “14-3-3 molecular scaffold (endogenous, detected with a pan 14-3-3 antibody) (from UniProt P63104 1-245) (natural protein)” the inhibition of IRF3 nuclear translocation in RIG-I-2CARD positive HeLa cells [1] was over 50%, the mono-ubiquitination of co-transfected HA-TRIM25 (western blot, densitometry), percent mono-ubiquitinated TRIM25 [2] was over 70% and the mono-ubiquitination of co-transfected HA-TRIM25 (western blot, densitometry), percent mono-ubiquitinated TRIM25 [3] was over 70%.
